# Experimental data taken from the nanobody polyreactivity screen of Harvey et al. (2022).
# Experiment: yeast display, Sf9 membrane polyspecificity reagent, FACS + sequencing; frameworks hold sequencing errors
# Method in brief: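 Sorting gates, low and high (top ~1%), were placed on anti-HA fluorescence to track expression and on streptavidin fluorescence to track reagent binding. A clone's polyreactivity label is taken from the gate it came out of. The reagent was 10% biotinylated, detergent-solubilized Sf9 membrane, applied for 1 hour at 4 °C to galactose-induced yeast display cells.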
row,Sequence,polyreactivity (PSR sort gate)
1,QVQLVESGGGLVQAGGSLRLSCAASGSIFSTYAMGWYRQAPGKERELVATIRRGGSTYYADSVKGRFTISRDNAKNTVYLQMNSLKPEETAVYYCAGTVSSYPYYRYYTWGQGTQVTVSS,high polyreactivity
2,QVQLVESGGGLVQAGGSLRLSCAASGSIFSVNAMGWYRQAPGKEREFVAGISTSGGSTYYADSVKGRFTISRDNAKNTVYLQMNSLKPEDTAVYYCAKGNFLYWQVRYYRPYKSRFYYWGQGTQVTVSS,low polyreactivity
3,QVQLVESGGGLVQAGGSLRLSCAASGSIFSVNTMGWNRKAPGKERELVATIRTGDSTNYADSVKGRFTISRDNAKNSVYLQMNSLKPEDTAVYYCAAEWSSMNFDYWGQGTQVNVSS,low polyreactivity
4,QVQLVESGGGLVQAGGSLRLSCAASGSIFSVYAMGWYRQAPGKEREFVASISGGSGRTYYADSVKGRFTISRDNAKNTVYLQMNSLKPEDTAVYYCDAVLRYTSLSHDYHYKYDYWGQGTQVTVSS,low polyreactivity
5,QVQLVESGGGLVQAGGSLRLSCAASGSIFSVYAMGWYRQAPGKERELVAGITRGGSTYADSVKGRFTISRDNAKNTVYLQMNSLKPEDTAVSYCAADALIATPSWGKYNYWGQGTQVTVSS,high polyreactivity
6,QVQLVESGGGLVQAGGSLRLSCAASGSIFSVYVMGWYRPAPGKERELVATISSGGGTYYADSVKGRFTISRDNAKNTVYLQMNSLKPEDTAVYYCYADWDDWKGDYWGQGTQVTVSS,low polyreactivity
7,QVQLVESGGGLVQAGGSLRLSCAASGSIFSWYAMAWYRQAPGKETELVADITWTVGSTYYADSVKGRFTISRDNAKNPVYLQMNSLIPEDTAVYYWAARRVVYRYYWYSAYDYSGQGTQVTVSS,high polyreactivity
8,QVQLVESGGGLVQAGGSLRLSCAASGSIFSWYAMGWYRQAPGKEREFVAAITWGTGGTYYADSVKGRFTISRDNAKNTVYLQMNSLKLEDTAVYYCAKTRSYGRSGVSRRYGFYYWGQGTQVTVSS,high polyreactivity
9,QVQLVESGGGLVQAGGSLRLSCAASGSIFSYNVMGWYRQAPGKERELVAAISYGGGSTYYADSVKGRFTISRDTAKNTVYLQMNSLKPEDTAVYYCAARKWYTYYPYDYWGQGTQVTVSS,high polyreactivity
10,QVQLVESGGGLVQAGGSLRLSCAASGSIFSYYAMGWYRQAPGKERELVAAIDRSGVSTYYADSVKGRFTISRDNAKNTVYLQMNSLKPEDTAVYYCNTDHRNICFRFKYDYWGQGTQVTVSS,high polyreactivity
11,QVQLVESGGGLVQAGGSLRLSCAASGSIFSYYAMGWYRQAPGKERELVAAIRRGGSTNYADSVKGRFTNSRDNAKNTVYLQMNSLKPEDTAVYYCAASLGWRFYYWGQGSQVTVSS,high polyreactivity
12,QVQLVESGGGLVQAGGSLRLSCAASGSIFSYYAMGWYRQAPGKERELVAAISSRGDGRTYYADSVKGRFTISRDNAKNTVYLQMNSLKPEDTAVYYCAAESSHYRLRDRDYWGQGTQVTVSS,high polyreactivity
13,QVQLVESGGGLVQAGGSLRLSCAASGSIFSYYAMGWYRQAPGKERELVAAISYTGGTTYYADSVKGRFTISRDNAKNTVYLQMNSLKPEDTAVYYCAAQWWWNRPVRYEYWGQGTQVTVSS,low polyreactivity
14,QVQLVESGGGLVQAGGSLRLSCAASGSIFSYYAMGWYRQAPGKERELVAAITSGGSTYYADSVKGRFTISRDNAKNTVYLQMNSLKPEDTAVYYCAREKWPSQYDYWGQGTQVTVSS,low polyreactivity
15,QVQLVESGGGLVQAGGSLRLSCAASGSIFSYYAMGWYRQAPGKERELVAAITSGGSTYYSDSVKGRFTISRDNAKNTVYLQMNSLKPEDTAVYYCAREKWPSQYDYWGQGTQVTVSS,low polyreactivity
16,QVQLVESGGGLVQAGGSLRLSCAASGSIFSYYAMGWYRQAPGKERELVAAITTSGGSTYYADSVKGRFTISRDNAKNTVYLQMNSLKPEDTAVYYCAVDQYDRTTAFWYWYPYYYWGQGTQVTVSS,low polyreactivity
17,QVQLVESGGGLVQAGGSLRLSCAASGSIFSYYAMGWYRQAPGKERELVAAITWSGGTTYYADSVKGRFTISRDNAKNTVYLQMNSLKPEDTAVYYCAADTYDYWYGVWLEYDYWGQGTQVTVSS,high polyreactivity
18,QVQLVESGGGLVQAGGSLRLSCAASGSIFSYYAMGWYRQAPGKERELVADITANDGSTYYADSVKGRFTISRDNAKNTVYLQMNSLKPEDTAVYYCAAEYYYPIWGPYDYWGQGTQVTVSS,high polyreactivity
19,QVQLVESGGGLVQAGGSLRLSCAASGSIFSYYAMGWYRQAPGKERELVATISVSGGNTYYADSVKGRFTISRDYAKNTVYLQMNSLKPEDTAVYYCAKYNWYRAWRYGYWGQGTQVTVSS,high polyreactivity
20,QVQLVESGGGLVQAGGSLRLSCAASGSIFSYYARGWYRHAPGKERELVADITWDGGSTYYADSVKGRFTISRDNAKNTVYLQMNSLKPEDTAVYYCAAGRIVWSDYYVYTLYDYWGQGTQVTVSS,high polyreactivity
21,QVQLVESGGGLVQAGGSLRLSCAASGSIFSYYVMGWYRQAPGKERELVAAITSSGGSTYYADSVKGRFTISRDNAKNTVYLQMNSLKTEDTAVYYCAAYQRSQDRSYPGYEYWGQGTQVTVSS,high polyreactivity
22,QVQLVESGGGLVQAGGSLRLSCAASGSIFSYYVMGWYRQAPGKERELVAVITDRGGRTYYADSVKGRFTISRDNAKNTVYLQMNSLKPEDTAVYYCAADDTPYNSKRFDYWGQGTQVTVSS,high polyreactivity

row,Sequence,polyreactivity (PSR sort gate)
1,QVQLVESGGGLVQAGGSLRLSCAASGSIFTAYAMGWYRQAPGKERELVAAIRWNDGRTYYADSVKGRFTISRDNAKNTVYLQINSLKPEDTAVYYCAARYTDVTPGFAYYYWGQGTQVTVSS,high polyreactivity
2,QVQLVESGGGLVQAGGSLRLSCAASGSIFTAYDKGWYRQAPGKVRDLVAAINVSAGTTYYADSVKGRFTISRDNAKNTVYLQMNSLKPEDTAVYYCATDRSPTPYTRENIYDYWGQGTQVTVSS,low polyreactivity
3,QVQLVESGGGLVQAGGSLRLSCAASGSIFTAYTMGWYRQAPGKERELVAAITERGGSTYYADSVKGRFTISRDNAKKTVYLQMNSMKPEDTAVYYCAASTLKDIYLWFRVDYWGQGTQVTVSS,low polyreactivity
4,QVQLVESGGGLVQAGGSLRLSCAASGSIFTDNAMGWYRQAPGKERELVAAITSNGGSTYYADSVKGRFTISRDNAKNTVYLQMNSLKPEDTAVYYCAADSLYREDDYWGHGTQVTVSS,low polyreactivity
5,QVQLVESGGGLVQAGGSLRLSCAASGSIFTDYALAWYRQAPGKERELVATITWSDATTYYTDSVKGRFTISRDNAKNTVYLQMNSLKPEDTAVYYCARRSRYSKGYDYWGQGTQVTVSS,low polyreactivity
6,QVQLVESGGGLVQAGGSLRLSCAASGSIFTENEMGWYRQAPGKERELVATITITGSTNYADSVKGRFTISRDNAKNTVYLQMNSLKPEDTAVYYCAAEQPYKSPWTFGGYDYWGQGTQVTVSS,low polyreactivity
7,QVQLVESGGGLVQAGGSLRLSCAASGSIFTFNSMGWYRQSPGKERELVAAIRWSSGRTYYADSVKGRFTISRDNAKNTVYLQMNSLKPEETAVYYCAAKDFGSFYDSGYDYWGQGTQVTVSS,high polyreactivity
8,QVQLVESGGGLVQAGGSLRLSCAASGSIFTFYAMGWYRQAPGKERELVAAISSSGTSTYYADSVQGRFTISRDNAKNTVYLQMNSLKPEDTAVYYCNVPMPPAKAEYGYWGQGTQVTVSS,high polyreactivity
9,QVQLVESGGGLVQAGGSLRLSCAASGSIFTFYDMGWYRQAPGKERELVAAISSGGSTTYADSVKGRFTISRDNAKNTVYLQMNSLKPEDTAVYYCAADSQPYLYPVEYDYWGQGTQVTVSS,low polyreactivity
10,QVQLVESGGGLVQAGGSLRLSCAASGSIFTGNAMGWYRPAPGTERELVAAITRSGDSTYYADSVKGRFTISRDNAKNTVYLQMNSLKPEDTAVDYCNARWRYLHSYGYWGQGTQVTVSS,low polyreactivity
11,QVQLVESGGGLVQAGGSLRLSCAASGSIFTGNAMGWYRQAPGKERELVAGISKSGGSTYYADSVKGRFTISRDNAKNTVYLQMNSLKPEDTAVYYCAAREGWWPYYYWGQGTQVTVSS,high polyreactivity
12,QVQLVESGGGLVQAGGSLRLSCAASGSIFTGYAMGWYRPAPGKERELVAAITSGGGTYYADSVKGRFTISRDNAKNTVSLQMNSLKPEDTAVYYCATTPGWYKVSRRYGYWGQGTQVTVSS,high polyreactivity
13,QVQLVESGGGLVQAGGSLRLSCAASGSIFTGYAMGWYRQAPGKERELVAAITYGSGRTYYADSVKGRFTISRDNAKNTVYLQMNSLKPEDTAVYYCAAKWSPYYYYIGYDYWGQGTQVTVSS,low polyreactivity
14,QVQLVESGGGLVQAGGSLRLSCAASGSIFTHNAMGWYRPAPGKERELVAAISSGGSTYYADSVKGRFTISRDNAKNTVYLQMNSLKPEDTAVYYCAVRQGWYHFRYDYWGQGTQVTVSS,high polyreactivity
15,QVQLVESGGGLVQAGGSLRLSCAASGSIFTHYAMGWYRQAPGKERELVAAISRRGGSTYYADSVKGRFTISRDNAKNTVYLQMNSLKPEDTAVYYCANSPDTAKEYDYWGQGTQVTVSS,high polyreactivity
16,QVQLVESGGGLVQAGGSLRLSCAASGSIFTLYAMGWYRQAPGKERELVADITFSGGTTYYADSVKGRFTISRDNAKNTVYLQMNSLKPEDTAVYYCATTYYQLYVQGYEYWGQGTQVTVSS,high polyreactivity
17,QVQLVESGGGLVQAGGSLRLSCAASGSIFTNNAMGWYRQAPGKERELVAGISIRGSSTYADSVKGRFTISRDNAKNTVYLQMNSLKPEDTAVYDCAADAYLELDPEVDYWGQGTQVTVSS,low polyreactivity
18,QVQLVESGGGLVQAGGSLRLSCAASGSIFTPNAMGWYRQAPGKERELVAAISSSSDRTYYADSVKGRFTISRDNAKNTVYLQLNSLKPEDTAVYYCAAYAQKRYYWGQGTQVTVSS,high polyreactivity
19,QVQLVESGGGLVQAGGSLRLSCAASGSIFTPNAMGWYRQAPGKERELVAAISSSSDRTYYADSVKGRFTISRDNAKNTVYLQMNSLKPEETAVYYCAAYAQKRYYWGQGTQVTVSS,high polyreactivity
20,QVQLVESGGGLVQAGGSLRLSCAASGSIFTPYAMGWYRQAPGKERELVAAISRSGGSTFYADSVKGRFTISRDNAKNSFYLQMNSLKPEDTAVYYFAVVASRSHTETPEYDYWGQGTQVTVSS,low polyreactivity
21,QVQLVESGGGLVQAGGSLRLSCAASGSIFTPYAMGWYRQAPGKERELVAAITYSGGSTYYADSVKGRFTISRDNAKNTVYLQMNSLKPEDTAVYYCAAYFNIYGLEYDYWGQGTQVTVSS,high polyreactivity
